The results in this text go back to patent US11851498B2, “Anti-CD276 antibodies (B7H3)” (THE UNITED STATES OF AMERICA, as represented by THE …, priority 2014, dated 2023).

The target in series [1] is T1, human CD276 expressed on the cell surface (CHO-huCD276) (Homo sapiens, UniProt Q5ZPR3).
T1 construct: expressed in transfected cells; host or cells: CHO cells
T1 sequence (Q5ZPR3 29-534): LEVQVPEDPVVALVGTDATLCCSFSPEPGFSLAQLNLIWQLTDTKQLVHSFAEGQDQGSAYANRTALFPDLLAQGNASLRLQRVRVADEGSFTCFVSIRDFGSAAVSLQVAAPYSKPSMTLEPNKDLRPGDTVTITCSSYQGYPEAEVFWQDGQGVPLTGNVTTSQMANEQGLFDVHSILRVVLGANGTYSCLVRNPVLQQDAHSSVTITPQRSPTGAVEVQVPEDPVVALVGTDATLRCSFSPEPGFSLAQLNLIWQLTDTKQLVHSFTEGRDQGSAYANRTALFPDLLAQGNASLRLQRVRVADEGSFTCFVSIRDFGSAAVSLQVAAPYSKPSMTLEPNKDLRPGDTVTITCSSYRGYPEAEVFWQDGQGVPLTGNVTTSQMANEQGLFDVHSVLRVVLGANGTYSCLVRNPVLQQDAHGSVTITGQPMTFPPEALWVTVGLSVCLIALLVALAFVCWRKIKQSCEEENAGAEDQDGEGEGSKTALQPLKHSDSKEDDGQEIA
The experiment in a line: Flow cytometry binding to CHO cells expressing human CD276. The series is classed as cell-based. The note with it: scFv-Fc, 1 μg/100 μl, FIG. 4. On the procedure: (§1) Chinese hamster ovary (CHO) cells were untransduced or transduced to express mouse CD276 or human CD276. The cells were cultured with 1 μg/100 μl of the anti-CD276 scFv-Fc m8524 (m276) (SEQ ID NOs: 26 and 27) (primary antibody) and fluorescein isothiocyanate (FITC) Gt anti-human antibody (H+L) (as a secondary antibody). The binding of the anti-CD276 scFv-Fc m8524 (m276) to mouse or human CD276 expressed on the cell surface was measured by flow cytometry.
(In flow cytometry, cells or beads pass a laser one at a time.)

In series [2] the test system is human CD276-AP fusion protein. The experiment in a line: ELISA binding assay, human CD276. The note with it: scFv-Fc fusion protein in culture medium, serially diluted; CD276-AP coated at 2 μg/ml; FIG. 1A. On the procedure: (§2) The scFv-encoding inserts of the unique clones were digested with SfiI and ligated into modified pSecTag bearing the same set of SfiI sites and Fc-Avi tag for soluble expression. These constructs were transfected into 293T cells for expression following the manufacturer's protocol. After 72 hr of growth, the scFv-Fc fusion proteins in the culture medium were used for the ELISA binding assay.
(§3) 50 μl of the diluted human (FIG. 1A) or mouse (FIG. 1B) CD276-AP fusion protein in PBS at 2 μg/ml was coated in a 96-well plate at 4° C. overnight. Transiently expressed scFv-Fc fusion protein in the culture medium was serially diluted and added into the target protein coated wells. After washing, a 1:3000 diluted horseradish peroxidase (HRP) conjugated goat anti-human IgG antibody was added for 1 hr at RT. After washing, 3, 3, 5, 5′-Tetramethylbenzidine (TMB) substrate was added, and the optical density (O.D.) was read at 450 nm.

The next series has as its system HEK 293 cells (293). The experiment in a line: Cell viability of untransduced HEK 293 cells. As to the method:
(§4) HEK 293 cells (293) or HEK 293 cells transduced with CD276 (293/CD276) were treated with MMAE alone, m8524 (m276) (SEQ ID NOs: 26 and 27) antibody alone, m825 (irrelevant control antibody)-ADC, or m8524-ADC. The drug of the ADCs was MMAE.

The target of the next series is T2, human CD276 Ecto-domain (Homo sapiens, UniProt Q5ZPR3).
T2 construct: The human CD276 soluble extracellular domain was covalently immobilized onto a sensor chip (CM5)
T2 sequence (Q5ZPR3 29-466 limits assumed): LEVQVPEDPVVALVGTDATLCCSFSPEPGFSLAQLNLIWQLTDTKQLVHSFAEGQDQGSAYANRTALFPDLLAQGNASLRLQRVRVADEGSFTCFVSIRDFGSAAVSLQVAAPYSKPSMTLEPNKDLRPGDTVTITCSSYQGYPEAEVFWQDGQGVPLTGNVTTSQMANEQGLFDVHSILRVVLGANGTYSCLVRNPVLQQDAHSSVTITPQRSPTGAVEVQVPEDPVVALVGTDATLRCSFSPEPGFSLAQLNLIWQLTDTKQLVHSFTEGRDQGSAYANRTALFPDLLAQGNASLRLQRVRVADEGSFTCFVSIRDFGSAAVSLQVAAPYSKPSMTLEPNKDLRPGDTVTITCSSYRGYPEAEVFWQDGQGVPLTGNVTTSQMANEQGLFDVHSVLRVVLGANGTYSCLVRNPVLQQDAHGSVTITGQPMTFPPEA
Nature of the series: Affinity determination by surface plasmon resonance (Biacore X100). Format: binding. Conditions: scFv m8524; immobilized human CD276 soluble extracellular domain; 1:1 Langmuir fit; 25° C; FIG. 2. On the procedure: Binding affinities of human anti-CD276 scFv m8524 to human CD276 Ecto-domain were analyzed by surface plasmon resonance technology using a Biacore X100 instrument (GE healthcare). The human CD276 soluble extracellular domain was covalently immobilized onto a sensor chip (CM5) using carbodiimide coupling chemistry. A control reference surface was prepared for nonspecific binding and refractive index changes. For analysis of the kinetics of interactions, varying concentrations of […] were injected at a flow rate of […] using running buffer containing 10 mM HEPES, 150 mM NaCl, 3 mM EDTA, and 0.05% Surfactant P-20 (pH 7.4). The association and dissociation phase data were fitted simultaneously to a 1:1 Langumir global model, using the nonlinear data analysis program BIAevaluation 3.2. All of the experiments were done at 25° C. The affinity of the antibody m8524 (m276) (comprising a heavy chain comprising SEQ ID NO: 26 and a light chain comprising SEQ ID NO: 27) is shown in FIG. 2.
A general note: Surface plasmon resonance follows binding to a sensor surface in real time, without labels.

The subject of series [3] is mouse CD276-AP fusion protein. The experiment in a line: ELISA binding assay, mouse CD276. Conditions: scFv-Fc fusion protein in culture medium, serially diluted; CD276-AP coated at 2 μg/ml; FIG. 1B. On the procedure: as §2, §3
The target of series [4] is T3, mouse CD276 expressed on the cell surface (CHO-msCD276) (Mus musculus, UniProt Q8VE98).
T3 construct: expressed in transfected cells; host or cells: CHO cells
T3 sequence (Q8VE98 29-316): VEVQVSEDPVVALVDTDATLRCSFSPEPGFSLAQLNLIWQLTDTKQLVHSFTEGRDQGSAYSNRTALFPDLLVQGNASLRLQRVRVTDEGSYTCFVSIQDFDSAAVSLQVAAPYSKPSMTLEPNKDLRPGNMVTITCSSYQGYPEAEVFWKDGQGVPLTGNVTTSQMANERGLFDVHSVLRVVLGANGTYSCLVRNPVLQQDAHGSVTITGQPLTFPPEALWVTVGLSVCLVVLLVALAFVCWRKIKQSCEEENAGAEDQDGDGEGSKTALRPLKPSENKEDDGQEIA
The experiment in a line: Flow cytometry binding to CHO cells expressing mouse CD276. The note with it: scFv-Fc, 1 μg/100 μl, FIG. 4. The series is classed as cell-based. On the procedure: as §1

A further series deals with 293/CD276 cells. The experiment in a line: Cell viability of HEK 293 cells transduced with CD276. On the procedure:
as §4

The subject of a further series is HT29 cells. The experiment in a line: In vitro cell viability, HT29. Format: cell-based, human. The note with it: various concentrations (nM), FIG. 13.
Series [5] concerns HCT-116 human colon cancer xenografts. The experiment in a line: HCT-116 human colon cancer xenografts in athymic nude mice. Conditions: 1, 3, 10 or 30 mpk twice a week for three weeks; FIGS. 8 and 9. The series is classed as in vivo. On the procedure: Athymic nude mice bearing HCT-116 human colon cancer xenografts were treated with control (vehicle), m8524 (m276) (SEQ ID NOs: 26 and 27) alone (30 mg/kg (mpk)), or m8524 (m276)-MMAE ADCs at various dosages (1 mpk, 3 mpk, 10 mpk, or 30 mpk) twice a week for three weeks. Tumor volume was measured at various time points after administration.
For orientation: A xenograft is tissue or cells of one species grown in another, often human tumour cells in immunodeficient mice.

Series [6] relates to KM12 human colon carcinoma xenografts. The experiment in a line: KM12 human colon carcinoma xenografts in athymic nude mice. The series is classed as in vivo. The note with it: 1, 3 or 10 mpk twice weekly for 3 weeks, 2 day break, FIG. 11. As to the method: Athymic nude mice bearing KM12 human colon carcinoma xenografts were treated with control (vehicle), m8524 (m276) (SEQ ID NOs: 26 and 27) alone (10 mg/kg (mpk)), or m8524 (m276)-MMAE ADCs at various dosages (1 mpk, 3 mpk, or 10 mpk) twice weekly for 3 weeks, followed by a 2 day break, followed by another dose twice weekly for 3 weeks. Tumor volume was measured at various time points after administration.

Series [7] deals with MDA-MB231 human breast cancer cells (mammary fat pad). Nature of the series: MDA-MB231 human breast cancer orthotopic xenografts in athymic nude mice. Format: in vivo. The note with it: 1 mpk or 10 mpk twice weekly for 3 weeks; FIG. 16. On the procedure:
MDA-MB231 human breast cancer cells were implanted in the mammary fat pad of athymic nude mice (orthotopic model). Tumor-bearing mice were treated with control (vehicle), m8524 (m276) (SEQ ID NOs: 26 and 27) alone (10 mg/kg (mpk)), or m8524 (m276)-MMAE ADCs (at a dose of 1 mpk or 10 mpk) twice weekly for 3 weeks. Tumor volume was measured at various time points after administration.

Series [8] relates to OVCAR3 human ovarian xenografts. The experiment in a line: OVCAR3 human ovarian xenografts in SCID mice. The series is classed as in vivo. The note with it: 1, 3 or 10 mpk on days 1, 4, 8 and 11; FIGS. 12 and 15. On the procedure: SCID mice bearing OVCAR3 human ovarian xenografts were treated with control (vehicle), m8524 (m276) (SEQ ID NOs: 26 and 27) alone (10 mg/kg (mpk)), MMAE alone (0.2 mpk), or m8524 (m276)-MMAE ADCs at various dosages (1 mpk, 3 mpk, or 10 mpk) on days 1, 4, 8 and 11. Tumor volume was measured at various time points after administration. The results are shown in FIG. 12 (up to Day 11) and FIG. 15 (up to Day 53).

In series [9] the test system is HT29 human colorectal adenocarcinoma xenografts. Nature of the series: HT29 human colorectal adenocarcinoma xenografts in athymic nude mice. The series is classed as in vivo. The note with it: 1, 3 or 10 mpk twice a week for three weeks; FIG. 10. As to the method:
Athymic nude mice bearing HT29 human colorectal adenocarcinoma xenografts were treated with control (vehicle), m8524 (m276) (SEQ ID NOs: 26 and 27) alone (10 mg/kg (mpk)), or m8524 (m276)-MMAE ADCs at various dosages (1 mpk, 3 mpk, or 10 mpk) twice a week for three weeks. Tumor volume was measured at various time points after administration.

The next series has as its system OVCAR3 cells. The experiment in a line: In vitro cell viability, OVCAR3. The series is classed as cell-based, human. The note with it: various concentrations (nM), FIG. 13.
For a further series, the system named is HCT116 cells. The experiment in a line: In vitro cell viability, HCT116. Format: cell-based, human. Conditions: various concentrations (nM), FIG. 13.

Like-named read-outs stand apart in the source and are kept apart here.

B1: m8524: anti-CD276 antibody clone, heavy chain comprising SEQ ID NO: 26 and light chain comprising SEQ ID NO: 27 (antibody, V domains shown)
VH: QVQLQQSGAEVKKPGSSVKVSCKASGGTFSSYAISWVRQAPGQGLEWMGGIIPILGIANYAQKFQGRVTITADESTSTAYMELSSLRSEDTAVYYCARGGSGSYHMDVWGKGTTVTVSS
VL: EIVLTQSPATLSLSPGERATLSCRASQSVSSYLAWYQQKPGQAPRLLIYDASNRATGIPARFSGSGSGTDFTLTISSLEPEDFAVYYCQQRSNWPPRITFGQGTRLEIK
With B1, in [1], the “binding to human CD276 expressed on the cell surface (flow cytometry)” value was “bound”. In addition, the “binding to human CD276 (OD at 450 nm, ELISA)” value in series [2] was “bound”. Moreover, the “cytotoxicity (cell viability, % of control)” value in the series on HEK 293 cells (293) and in the series with 293/CD276 cells was “resistant to killing” each time. The affinity in the series with human CD276 Ecto-domain, expressed as Kd, was 0.049 nM. The “binding to mouse CD276 (OD at 450 nm, ELISA)” value in [3] is reported as “bound”. Besides, the “binding to mouse CD276 expressed on the cell surface (flow cytometry)” value in series [4] was “bound”.

B2: m8524-ADC: m8524 antibody conjugated to MMAE via a linking moiety; n is 2, 4, 6, or 8 (conjugate)
VH: B1 VH
VL: B1 VL
For B2, the cell viability entry with HT29 cells, in the series with OVCAR3 cells and in the series with HCT116 cells was “decreased” each time. Also, the “tumor volume as compared to control or m8524 (m276) alone” value in series [5], in series [6], in series [7] and in series [9] was “decreased” in each case. The “cytotoxicity (cell viability, % of control)” value with HEK 293 cells (293) (293 cells (low CD276), various concentrations (nM), FIG. 7) is listed as “selectively cytotoxic”; with 293/CD276 cells (293/CD276 cells (high CD276), various concentrations (nM), FIG. 7) it was “selectively cytotoxic”. Moreover, in the series on 293/CD276 cells (293/CD276 versus 293 cells, FIG. 7), the “selectivity for CD276-expressing cells” value is “toxicity corresponding to CD276 expression levels”. The “tumor volume as compared to control, MMAE alone, or m8524 (m276) alone” value in [8] is reported as “decreased”.
